From patent US20210260163A1 come the findings set out here.

In the assay the target is IL-2Rα (on CTLL2 cells) (UniProt P01590). In words: cell-based or functional assay.
Sequence of IL-2Rα (on CTLL2 cells) (P01590 22-268 limits assumed): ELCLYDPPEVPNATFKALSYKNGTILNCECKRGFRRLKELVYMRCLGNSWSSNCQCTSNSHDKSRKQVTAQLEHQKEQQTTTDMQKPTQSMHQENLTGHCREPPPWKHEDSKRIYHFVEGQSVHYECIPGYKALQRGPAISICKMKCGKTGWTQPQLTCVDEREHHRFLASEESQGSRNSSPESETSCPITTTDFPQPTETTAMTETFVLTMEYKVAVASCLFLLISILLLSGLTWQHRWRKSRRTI
As to “HSA-IL-2-T3A/C125S-R38S/F42A/Y45A/E62A (SEQ ID NO: 127)”, the EC50 in the CTLL2 cell-based activity assay is 76 nM.

With “IgG1FC (with LALA and Knob)-IL-2-T3A/C125S-R38S/F42A/Y45A/E62A (SEQ ID NO: 132) paired with Fc hole (SEQ ID NO: 194) (from UniProt P0DOX5 223-449) (Fc fusion)”, the EC50 in the CTLL2 cell-based activity assay amounted to 60 nM. Then “HSA-IL-2-T3A/C125S-F42A/Y45A/L72G (SEQ ID NO: 126)”, with 77 nM; and “IgG1FC (with LALA and Knob)-IL-2-T3A/C125S-R38S/F42A/Y45A/A73T (SEQ ID NO: 135) paired with Fc hole (SEQ ID NO: 194) (from UniProt P0DOX5 223-449) (Fc fusion)”, with 60 nM.
